Measurements reported in patent US11260100B2, “Compositions targeting the interaction domain between p27Kip1 and Brk and methods of use thereof to inhibit p27 Y phosphorylation and cdk4 activity” (The Research Foundation for the State University of New York, priority 2014, dated 2022).

Experiments:
[1] = system: MCF7 breast cancer cells; assay: Proliferation with ALT and Palbociclib at IC50 concentration (FIG. 9); assay type: cell-based, human
Experimental: FIGS. 9A-9B: AltBrk Synergizes with Palbociclib. ALT, Palbociclib, or Brk alone or in combination were added to or expressed in MCF7 breast cancer cells on day 2 post plating. Drugs were added at their IC50 concentration, based on previous results. ALT is expressed from an ALT-MCF7 tetracycline inducible cell line generated in the Blain lab. When tetracycline is added to the cell culture media, ALT is expressed in these cells. Vector: no tetracycline was added, so no ALT induction was detected. (FIG. 9A) Cells were harvested and counted every two days, as a measure of proliferation. Proliferation is plotted as a percentage relative to that seen in the DMSO treated control. Drugs and media were replaced every two days. (FIG. 9B) Viability was measured by trypan blue staining, and plotted relative to viability seen in the DMSO treated control.
Additional experiments were performed assessing activity of Brk in combination with Palbociclib. The data presented in FIGS. 9A and 9B reveal that Palbociclib and Brk inhibit proliferation for 2 days, and then resistance is observed (proliferation increases). Alt maintained arrest for roughly 10 days (50% inhibition of proliferation is detected). […] Alt-Brk/Palbociclib combination leads to a more durable cell cycle arrest. Mono therapy treated cells start to become resistant between day 8-10. […]

[2] = biological target: T1, Brk phosphorylation of p27 (Homo sapiens, UniProt P46527+Q13882); assay: In vitro Brk phosphorylation of p27 with competitor, pY88/pY74 immunoblot; assay type: biochemical; conditions: increasing amounts of competitor
T1 construct: were incubated with p27 before the addition of full length Brk and ATP; We incubated full length p27 with Src or Brk in the presence of ATP; purchased SignalChem (GST-PTK6/Brk) or Invitrogen (His-PTK6/Brk); host or cells: p27 made in house in E. coli
Experimental: FIGS. 3A-3D: SH3:PxxP interaction is required for p27 Y88 phosphorylation. (FIG. 3A) p27 and Brk were incubated with ATP and with increasing concentrations of the PxxP competitor, F58-106, followed by immunoblot analysis with pY88, pY74 and p27 antibodies. Lane 5: +equimolar amount of F58-106 and p27, lane 6: ++2.5×F58-106, lane 7: +++5×F58-106, lane 8: ++++10×F58-106. (FIG. 3B) GST-Brk, p27 and F58-106 were incubated, immunoprecipitated with GST antibodies, followed by immunblot analysis with GST or p27 antibodies. (FIG. 3C) Increasing amounts of GST-SH3, GST-SH2 or GST peptides were incubated with p27, followed by immunoblot analysis with pY88, pY74, p27 and GST antibodies. Lanes 3, 5, 7: 2.5× competitor, lanes 4, 6, […]: 5× competitor. (FIG. 3D) GST-SH3, GST-SH2 or GST peptides were incubated with p27 or ΔK1/K3, followed by metal agarose chromatography and immunoblot analysis with GST and p27 antibodies. Loading control: GST peptides added to the reaction which are not representative of association.
FIGS. 8A-8G: Alt Brk (SEQ ID NO: 17) acts as an endogenous inhibitor of Brk. […]
To directly verify this, we expressed a Flag-tagged Alt-Brk in bacteria and purified this 15 Kd protein (FIG. 8A). When p27 was incubated with Brk, Y88 and Y74 phosphorylation was detected by immunoblot analysis (FIG. 8A, lane 3). […]

T1 sequence (Q13882 whole entry): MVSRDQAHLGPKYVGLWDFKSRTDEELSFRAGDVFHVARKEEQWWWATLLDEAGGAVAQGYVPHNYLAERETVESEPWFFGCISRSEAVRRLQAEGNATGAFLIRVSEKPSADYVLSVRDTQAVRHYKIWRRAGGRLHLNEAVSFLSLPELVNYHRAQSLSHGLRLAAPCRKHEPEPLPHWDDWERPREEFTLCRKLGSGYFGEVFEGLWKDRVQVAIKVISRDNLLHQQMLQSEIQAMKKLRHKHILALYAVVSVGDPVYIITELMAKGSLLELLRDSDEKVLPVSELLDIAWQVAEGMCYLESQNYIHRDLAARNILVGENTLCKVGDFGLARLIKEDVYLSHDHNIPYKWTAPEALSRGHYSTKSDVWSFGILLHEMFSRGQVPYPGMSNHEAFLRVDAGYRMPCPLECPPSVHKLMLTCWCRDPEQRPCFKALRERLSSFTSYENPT
T1 sequence (P46527 whole entry): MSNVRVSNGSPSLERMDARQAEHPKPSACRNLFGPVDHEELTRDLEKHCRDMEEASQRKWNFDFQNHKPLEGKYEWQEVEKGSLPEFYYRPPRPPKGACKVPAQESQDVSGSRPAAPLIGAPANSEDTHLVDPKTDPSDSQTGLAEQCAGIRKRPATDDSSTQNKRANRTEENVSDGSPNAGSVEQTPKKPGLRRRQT

p27 Y74 phosphorylation by Brk [2]: not affected
p27 Y88 phosphorylation by Brk [2]: decreased
B1: Alt-Brk: alternative splice variant of Brk (SEQ ID NO: 17), 15 KD protein with SH3 domain, lacks kinase domain (protein, listed as Homo sapiens)
chain: MVSRDQAHLGPKYVGLWDFKSRTDEELSFRAGDVFHVARKEEQWWWATLLDEAGGAVAQGYVPHNYLAERETVESEPAGHAGCAALQDLAACRGPAAPERGGVLPQPARACELPQGPEPVPRPAAGRALPEARA
duration of proliferation inhibition / arrest ([1]; drugs at IC50 concentration, replaced every two days): roughly 10 days
inhibition of proliferation ([1]; during arrest): 50%
